Data as given in patent US20240287154A1, “MC3R AGONIST PEPTIDES” (The Regents of the University of Michigan, priority 2021, published 2024).
Non-standard residues stand in square brackets, D forms with d. Phe(4-I) = N[C@@H](Cc1ccc(I)cc1)C(=O)O; NMeH = CN[C@@H](Cc1c[nH]cn1)C(=O)O; NMeK = CN[C@@H](CCCCN)C(=O)O; dNle = CCCC[C@@H](N)C(=O)O; NMeA = CN[C@@H](C)C(=O)O; Nle = CCCC[C@H](N)C(=O)O; dAbu = CC[C@@H](N)C(=O)O; dNMeA = CN[C@H](C)C(=O)O; R1 = not defined here; Aib = CC(C)(N)C(=O)O

B1: CTX-1119 (peptide)
peptide: H-YV[Nle][dA]HFR[dW]DRF-NH2
SMILES: CCCC[C@H](NC(=O)[C@@H](NC(=O)[C@@H](N)Cc1ccc(O)cc1)C(C)C)C(=O)N[C@H](C)C(=O)N[C@@H](Cc1c[nH]cn1)C(=O)N[C@@H](Cc1ccccc1)C(=O)N[C@@H](CCCNC(=N)N)C(=O)N[C@H](Cc1c[nH]c2ccccc12)C(=O)N[C@@H](CC(=O)O)C(=O)N[C@@H](CCCNC(=N)N)C(=O)N[C@@H](Cc1ccccc1)C(N)=O
B2: CTX-1123 (peptide)
peptide: Ac-[Nle][dA]HFR[dW]D-NH2
SMILES: CCCC[C@H](NC(C)=O)C(=O)N[C@H](C)C(=O)N[C@@H](Cc1c[nH]cn1)C(=O)N[C@@H](Cc1ccccc1)C(=O)N[C@@H](CCCNC(=N)N)C(=O)N[C@H](Cc1c[nH]c2ccccc12)C(=O)N[C@@H](CC(=O)O)C(N)=O
B3: CTX-1146 (peptide)
peptide: Ac-[Nle][dA]HFR[dW]D[dR]FG-OH
SMILES: CCCC[C@H](NC(C)=O)C(=O)N[C@H](C)C(=O)N[C@@H](Cc1c[nH]cn1)C(=O)N[C@@H](Cc1ccccc1)C(=O)N[C@@H](CCCNC(=N)N)C(=O)N[C@H](Cc1c[nH]c2ccccc12)C(=O)N[C@@H](CC(=O)O)C(=O)N[C@H](CCCNC(=N)N)C(=O)N[C@@H](Cc1ccccc1)C(=O)NCC(=O)O
B4: CTX-1181 (peptide)
peptide: Ac-[Nle][dV]HFR[dW]DRFG-OH
SMILES: CCCC[C@H](NC(C)=O)C(=O)N[C@@H](C(=O)N[C@@H](Cc1c[nH]cn1)C(=O)N[C@@H](Cc1ccccc1)C(=O)N[C@@H](CCCNC(=N)N)C(=O)N[C@H](Cc1c[nH]c2ccccc12)C(=O)N[C@@H](CC(=O)O)C(=O)N[C@@H](CCCNC(=N)N)C(=O)N[C@@H](Cc1ccccc1)C(=O)NCC(=O)O)C(C)C
B5: CTX-1182 (peptide)
peptide: Ac-[Nle][dNle]HFR[dW]DRFG-OH
SMILES: CCCC[C@H](NC(C)=O)C(=O)N[C@H](CCCC)C(=O)N[C@@H](Cc1c[nH]cn1)C(=O)N[C@@H](Cc1ccccc1)C(=O)N[C@@H](CCCNC(=N)N)C(=O)N[C@H](Cc1c[nH]c2ccccc12)C(=O)N[C@@H](CC(=O)O)C(=O)N[C@@H](CCCNC(=N)N)C(=O)N[C@@H](Cc1ccccc1)C(=O)NCC(=O)O
B6: CTX-1183 (peptide)
peptide: Ac-[Nle][dNMeA]HFR[dW]DRFG-OH
SMILES: CCCC[C@H](NC(C)=O)C(=O)N(C)[C@H](C)C(=O)N[C@@H](Cc1c[nH]cn1)C(=O)N[C@@H](Cc1ccccc1)C(=O)N[C@@H](CCCNC(=N)N)C(=O)N[C@H](Cc1c[nH]c2ccccc12)C(=O)N[C@@H](CC(=O)O)C(=O)N[C@@H](CCCNC(=N)N)C(=O)N[C@@H](Cc1ccccc1)C(=O)NCC(=O)O
B7: CTX-1184 (peptide)
peptide: Ac-[Nle][dP]HFR[dW]DRFG-OH
SMILES: CCCC[C@H](NC(C)=O)C(=O)N1CCC[C@@H]1C(=O)N[C@@H](Cc1c[nH]cn1)C(=O)N[C@@H](Cc1ccccc1)C(=O)N[C@@H](CCCNC(=N)N)C(=O)N[C@H](Cc1c[nH]c2ccccc12)C(=O)N[C@@H](CC(=O)O)C(=O)N[C@@H](CCCNC(=N)N)C(=O)N[C@@H](Cc1ccccc1)C(=O)NCC(=O)O
B8: CTX-1185 (peptide)
peptide: Ac-[Nle]GHFR[dW]DRFG-OH
SMILES: CCCC[C@H](NC(C)=O)C(=O)NCC(=O)N[C@@H](Cc1c[nH]cn1)C(=O)N[C@@H](Cc1ccccc1)C(=O)N[C@@H](CCCNC(=N)N)C(=O)N[C@H](Cc1c[nH]c2ccccc12)C(=O)N[C@@H](CC(=O)O)C(=O)N[C@@H](CCCNC(=N)N)C(=O)N[C@@H](Cc1ccccc1)C(=O)NCC(=O)O
B9: CTX-1186 (peptide)
peptide: Ac-[Nle][dA][NMeH]FR[dW]DRFG-OH
SMILES: CCCC[C@H](NC(C)=O)C(=O)N[C@H](C)C(=O)N(C)[C@@H](Cc1c[nH]cn1)C(=O)N[C@@H](Cc1ccccc1)C(=O)N[C@@H](CCCNC(=N)N)C(=O)N[C@H](Cc1c[nH]c2ccccc12)C(=O)N[C@@H](CC(=O)O)C(=O)N[C@@H](CCCNC(=N)N)C(=O)N[C@@H](Cc1ccccc1)C(=O)NCC(=O)O
B10: CTX-1189 (peptide)
peptide: Ac-[Nle][dA][NMeK]FR[dW]DRFG-OH
SMILES: CCCC[C@H](NC(C)=O)C(=O)N[C@H](C)C(=O)N(C)[C@@H](CCCCN)C(=O)N[C@@H](Cc1ccccc1)C(=O)N[C@@H](CCCNC(=N)N)C(=O)N[C@H](Cc1c[nH]c2ccccc12)C(=O)N[C@@H](CC(=O)O)C(=O)N[C@@H](CCCNC(=N)N)C(=O)N[C@@H](Cc1ccccc1)C(=O)NCC(=O)O
B11: CTX-1190 (peptide)
peptide: Ac-[Nle][dA][NMeA]FR[dW]DRFG-OH
SMILES: CCCC[C@H](NC(C)=O)C(=O)N[C@H](C)C(=O)N(C)[C@@H](C)C(=O)N[C@@H](Cc1ccccc1)C(=O)N[C@@H](CCCNC(=N)N)C(=O)N[C@H](Cc1c[nH]c2ccccc12)C(=O)N[C@@H](CC(=O)O)C(=O)N[C@@H](CCCNC(=N)N)C(=O)N[C@@H](Cc1ccccc1)C(=O)NCC(=O)O
B12: CTX-1191 (peptide)
peptide: Ac-[Nle][dAbu]H[Phe(4-I)]R[dW]DRFG-OH
SMILES: CCCC[C@H](NC(C)=O)C(=O)N[C@H](CC)C(=O)N[C@@H](Cc1c[nH]cn1)C(=O)N[C@@H](Cc1ccc(I)cc1)C(=O)N[C@@H](CCCNC(=N)N)C(=O)N[C@H](Cc1c[nH]c2ccccc12)C(=O)N[C@@H](CC(=O)O)C(=O)N[C@@H](CCCNC(=N)N)C(=O)N[C@@H](Cc1ccccc1)C(=O)NCC(=O)O
B13: CTX-1194 (peptide)
peptide: Ac-YVE[dAbu]H[Phe(4-I)]R[dW]DRFG-OH
SMILES: CC[C@@H](NC(=O)[C@H](CCC(=O)O)NC(=O)[C@@H](NC(=O)[C@H](Cc1ccc(O)cc1)NC(C)=O)C(C)C)C(=O)N[C@@H](Cc1c[nH]cn1)C(=O)N[C@@H](Cc1ccc(I)cc1)C(=O)N[C@@H](CCCNC(=N)N)C(=O)N[C@H](Cc1c[nH]c2ccccc12)C(=O)N[C@@H](CC(=O)O)C(=O)N[C@@H](CCCNC(=N)N)C(=O)N[C@@H](Cc1ccccc1)C(=O)NCC(=O)O
B14: CTX-1129 (peptide)
peptide: H-YV[Nle]AHFR[dW]D-NH2
SMILES: CCCC[C@H](NC(=O)[C@@H](NC(=O)[C@@H](N)Cc1ccc(O)cc1)C(C)C)C(=O)N[C@@H](C)C(=O)N[C@@H](Cc1c[nH]cn1)C(=O)N[C@@H](Cc1ccccc1)C(=O)N[C@@H](CCCNC(=N)N)C(=O)N[C@H](Cc1c[nH]c2ccccc12)C(=O)N[C@@H](CC(=O)O)C(N)=O
B15: CTX-1195 (peptide)
peptide: Ac-YVE[Aib]H[Phe(4-I)]R[dW]DRFG-OH
SMILES: CC(=O)N[C@@H](Cc1ccc(O)cc1)C(=O)N[C@H](C(=O)N[C@@H](CCC(=O)O)C(=O)NC(C)(C)C(=O)N[C@@H](Cc1c[nH]cn1)C(=O)N[C@@H](Cc1ccc(I)cc1)C(=O)N[C@@H](CCCNC(=N)N)C(=O)N[C@H](Cc1c[nH]c2ccccc12)C(=O)N[C@@H](CC(=O)O)C(=O)N[C@@H](CCCNC(=N)N)C(=O)N[C@@H](Cc1ccccc1)C(=O)NCC(=O)O)C(C)C
B16: CTX-1197 (peptide)
peptide: Ac-[Nle][dA]R[Phe(4-I)]R[dW]DRFG-OH
SMILES: CCCC[C@H](NC(C)=O)C(=O)N[C@H](C)C(=O)N[C@@H](CCCNC(=N)N)C(=O)N[C@@H](Cc1ccc(I)cc1)C(=O)N[C@@H](CCCNC(=N)N)C(=O)N[C@H](Cc1c[nH]c2ccccc12)C(=O)N[C@@H](CC(=O)O)C(=O)N[C@@H](CCCNC(=N)N)C(=O)N[C@@H](Cc1ccccc1)C(=O)NCC(=O)O
B17: CTX-1501 (peptide)
peptide: Ac-[Nle][dA]H[Phe(4-I)][dR]WDRFG-OH
SMILES: CCCC[C@H](NC(C)=O)C(=O)N[C@H](C)C(=O)N[C@@H](Cc1c[nH]cn1)C(=O)N[C@@H](Cc1ccc(I)cc1)C(=O)N[C@H](CCCNC(=N)N)C(=O)N[C@@H](Cc1c[nH]c2ccccc12)C(=O)N[C@@H](CC(=O)O)C(=O)N[C@@H](CCCNC(=N)N)C(=O)N[C@@H](Cc1ccccc1)C(=O)NCC(=O)O

Biological target: human MC3R (human, UniProt P41968 1-323)
Test: cell-based or functional assay

human MC3R, sequence (P41968 whole entry): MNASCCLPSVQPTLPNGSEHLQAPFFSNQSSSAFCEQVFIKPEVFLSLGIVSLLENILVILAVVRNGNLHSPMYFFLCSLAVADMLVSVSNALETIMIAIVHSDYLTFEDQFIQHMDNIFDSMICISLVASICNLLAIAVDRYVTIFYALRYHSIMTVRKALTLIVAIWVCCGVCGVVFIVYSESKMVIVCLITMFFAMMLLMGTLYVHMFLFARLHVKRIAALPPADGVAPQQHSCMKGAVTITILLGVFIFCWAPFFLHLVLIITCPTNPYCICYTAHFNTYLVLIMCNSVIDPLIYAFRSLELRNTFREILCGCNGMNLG

MC3R cAMP (EC50) | MC3R selectivity (relative to MC4R) | Binder
1.9 nM | 24 | B1
213 nM | 28 | B2
1.7 nM | 69 | YVXAHFRWDRFG (NMe-Tyr at 1; Nle at 3; D-Ala at 4; D-Trp at 8) [CTX-1124]
1.9 nM | 37 | YVXFHFRWDRFG (Nle at 3; D-Phe at 4; D-Trp at 8) [CTX-1136]
170 nM | – | B3
710 nM | 6800 | R1-V[Nle][dA]HFR[dW]DRFG-OH (reading uncertain) [CTX-1149 (R1, SEQ ID NO 66)]
1.4 nM | 7.4 | YVXAHFRWDRFG (Nle at 3; D-Trp at 8) [CTX-1133]
952 nM | 22 | Ac-[Nle][dA]HFR[dW]DR[dF]K(R1)-OH (reading uncertain) [CTX-1161]
102 nM | 718 | B4
14.6 nM | 1410 | B5
71.6 nM | 515 | B6
607 nM | 28 | B7
2.7 nM | 2310 | B8
200 nM | 1880 | B9
3540 nM | 1 | B10
3920 nM | – | B11
3.9 nM | 470 | B12
34.3 nM | 49 | B13
1.2 nM | 7.5 | B14
184 nM | 51 | B15
13.5 nM | 250 | B16
2800 nM | 0.01 | B17
